Results on one substance are retold here after US20230002478A1.

The target in this assay is biotinylated D614G SARS-CoV-2 spike trimer (SARS-CoV-2) (UniProt P0DTC2). Put plainly: AlphaLISA, inhibition of ACE2-muFc / biotinylated spike complex.

A word on the IC50: it is the midpoint of a concentration-inhibition curve. A lower IC50 goes with greater potency. For the substance “anti-RBD neutralizing monoclonal antibody (human IgG1) from Acro Biosystems (SAD-S35)”, the IC50 amounted to 1.84 nM.
